Experimental data from the RNAGym collection of RNA variant scans (doi:10.7554/elife.80360).

B1: Hammerhead Ribozyme (parent)
chain: ACCGGAUGUGCUUUCCGGUCUGAUGAGUCCGUGAGGACGAAACAG

Variants of: B1
Assay: self-cleavage, relative activity (ratio to wild type); higher = more cleavage; co-transcriptional

| Variant | self-cleavage |
| --- | --- |
| C2A C20U | 0.372 |
| C2A C20A | 0.292 |
| C2A C20G | 0.288 |
| A1G C16G | 0.778 |
| A1G C16A | 1.15 |
| A1G C16U | 1.9 |
| A1G U24A | 1.78 |
| A1G U24C | 1.6 |
| A1G U24G | 1.68 |
| A1U G10U | 0.997 |
| A1U G10A | 0.815 |
| A1U G10C | 0.6 |
| A1G G33A | 1.53 |
| A1G G33U | 1.7 |
| A1G G33C | 1.67 |
| C2A G17A | 0.364 |
| C2A G17U | 0.365 |
| C2A G17C | 0.359 |
| A1U A34C | 0.492 |
| A1U A34U | 0.452 |
| A1U A34G | 0.596 |
| A1U G36A | 0.537 |
| A1U G36C | 0.328 |
| A1U G36U | 0.438 |

| Variant | self-cleavage |
| --- | --- |
| C2A C11G | 0.828 |
| C2A C11A | 0.958 |
| C2A C11U | 0.431 |
| A1G A42U | 0.425 |
| A1G A42C | 0.361 |
| A1G A42G | 0.344 |
| A1U A23G | 0.383 |
| A1U A23C | 0.385 |
| A1U A23U | 0.306 |
| A1U C30U | 0.897 |
| A1U C30G | 0.414 |
| A1U C30A | 0.487 |
| A1G G27C | 0.879 |
| A1G G27A | 1.07 |
| A1G G27U | 0.585 |
| C2A | 0.866 |
| C2A A41G | 0.294 |
| C2A A41U | 0.346 |
| C2A A41C | 0.366 |
| A1G G10A | 1.92 |
| A1G G10C | 1.61 |
| A1G G10U | 1.99 |
| A1G C2G | 0.735 |
| A1G C2U | 2.07 |

| Variant | self-cleavage |
| --- | --- |
| A1G C2A | 0.881 |
| A1G C11G | 2.12 |
| A1G C11U | 1.33 |
| A1G C11A | 2.06 |
| A1U U12C | 0.546 |
| A1U U12G | 0.753 |
| A1U U12A | 0.66 |
| A1G C15U | 1.68 |
| A1G C15G | 0.996 |
| A1G C15A | 1.06 |
| A1G G45C | 1.01 |
| A1G G45U | 1.13 |
| A1G G45A | 1.11 |
| A1U U28C | 0.5 |
| A1U U28A | 0.3 |
| A1U U28G | 0.436 |
| C2A G8C | 0.559 |
| C2A G8U | 0.794 |
| C2A G8A | 0.587 |
| A1U G27C | 0.317 |
| A1U G27U | 0.417 |
| A1U G27A | 0.437 |
| C2A A37G | 0.427 |
| C2A A37U | 0.368 |

| Variant | self-cleavage |
| --- | --- |
| C2A A37C | 0.376 |
| A1G C29A | 0.835 |
| A1G C29U | 1.52 |
| A1G C29G | 1.02 |
| A1U G39C | 0.356 |
| A1U G39A | 0.349 |
| A1U G39U | 0.347 |
| A1U G4C | 0.353 |
| A1U G4U | 0.309 |
| A1U G4A | 0.342 |
| A1G C38A | 0.973 |
| A1G C38G | 0.865 |
| A1G C38U | 1.49 |
| C2A G10U | 0.88 |
| C2A G10C | 0.662 |
| C2A G10A | 0.934 |
| A1U A41G | 0.414 |
| A1U A41C | 0.378 |
| A1U A41U | 0.377 |
| C2A C30U | 0.847 |
| C2A C30A | 0.473 |
| C2A C30G | 0.333 |
| A1G G17A | 0.896 |
| A1G G17U | 1.02 |

| Variant | self-cleavage |
| --- | --- |
| A1G G17C | 0.585 |
| C2A A26G | 0.293 |
| C2A A26C | 0.328 |
| C2A A26U | 0.374 |
| A1G A26G | 0.397 |
| A1G A26U | 0.971 |
| C2A G4U | 1.77 |
| C2A G4C | 0.346 |
| C2A G4A | 0.322 |
| A1G G36A | 1.21 |
| A1G G36C | 0.654 |
| A1G G36U | 1.02 |
| C2A G5U | 0.319 |
| C2A G5C | 0.288 |
| C2A G5A | 0.37 |
| A1U G35A | 0.635 |
| A1U G35C | 0.47 |
| A1U G35U | 0.451 |
| C2A A44C | 0.425 |
| C2A A44U | 0.375 |
| C2A A44G | 0.989 |
| A1G U21G | 0.812 |
| A1G U21C | 0.949 |
| A1G U21A | 0.968 |

| Variant | self-cleavage |
| --- | --- |
| A1G A44C | 0.858 |
| A1G A44G | 2.11 |
| A1G A44U | 0.968 |
| C2A C16A | 0.365 |
| C2A C16G | 0.363 |
| C2A C16U | 0.554 |
| A1U C15G | 0.355 |
| A1U C15U | 0.55 |
| A1U C15A | 0.373 |
| A1U U9C | 0.656 |
| A1U U9A | 0.565 |
| A1U U9G | 0.348 |
| A1G U13G | 1.97 |
| A1G U13C | 1.87 |
| A1G U13A | 1.96 |
| C2A G22C | 0.353 |
| C2A G22A | 0.364 |
| C2A G22U | 0.34 |
| A1G G31U | 1.88 |
| A1G G31C | 1.64 |
| A1G G31A | 1.79 |
| C2A G18U | 1.21 |
| C2A G18C | 0.922 |
| C2A G18A | 0.883 |

| Variant | self-cleavage |
| --- | --- |
| A1U A37G | 0.734 |
| A1U A37C | 0.556 |
| A1U A37U | 0.464 |
| A1U G22C | 0.22 |
| A1U G22A | 0.372 |
| A1U G22U | 0.33 |
| C2A A34G | 0.48 |
| C2A A34C | 0.387 |
| C2A A34U | 0.402 |
| A1U G8A | 0.687 |
| A1U G8C | 0.599 |
| A1U G8U | 0.728 |
| A1G C43U | 0.597 |
| A1G C43G | 0.395 |
| A1G C43A | 0.444 |
| A1U G5C | 0.287 |
| A1U G5U | 0.354 |
| A1U G5A | 0.491 |
| A1U C43G | 0.448 |
| A1U C43U | 0.413 |
| A1U C43A | 0.347 |
| A1G U12C | 1.71 |
| A1G U12G | 1.91 |
